# Experimental data published in US20200325224A1.
# Legend:
# [1] = biological target: cynomolgus CD3 epsilon (on expanded cynomolgus T cells) (cynomolgus) (UniProt Q95LI5); test: FACS on expanded cynomolgus T cells (cyno PBL), antibody at 0.1 µg/ml, Alexa488-labelled secondary antibody, geomean of fluorescence
# [2] = biological target: cynomolgus CD3 epsilon (on expanded cynomolgus T cells) (cynomolgus) (UniProt Q95LI5); test: FACS on expanded cynomolgus T cells (cyno PBL), antibody at 1 µg/ml, Alexa488-labelled secondary antibody, geomean of fluorescence
# [3] = biological target: human CD3 epsilon (on human T cells / CD3-positive Jurkat E6-1 cells) (human) (UniProt P07766); test: FACS on expanded human T cells (hum PBL), antibody at 10 µg/ml, Alexa488-labelled secondary antibody, geomean of fluorescence
# Sequence of human CD3 epsilon (on human T cells / CD3-positive Jurkat E6-1 cells) (human) (P07766 23-207 limits assumed): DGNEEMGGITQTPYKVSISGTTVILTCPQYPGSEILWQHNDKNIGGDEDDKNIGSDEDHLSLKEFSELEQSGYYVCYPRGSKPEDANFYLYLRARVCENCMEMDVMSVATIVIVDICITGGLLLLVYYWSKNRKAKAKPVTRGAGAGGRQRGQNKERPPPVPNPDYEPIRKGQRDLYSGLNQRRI
# [4] = biological target: human CD3 epsilon (on human T cells / CD3-positive Jurkat E6-1 cells) (human) (UniProt P07766); test: FACS on expanded human T cells (hum PBL), antibody at 1 µg/ml, Alexa488-labelled secondary antibody, geomean of fluorescence
# [5] = biological target: cynomolgus CD3 epsilon (on expanded cynomolgus T cells) (cynomolgus) (UniProt Q95LI5); test: FACS on expanded cynomolgus T cells (cyno PBL), antibody at 10 µg/ml, Alexa488-labelled secondary antibody, geomean of fluorescence
# [6] = biological target: human CD3 epsilon (on human T cells / CD3-positive Jurkat E6-1 cells) (human) (UniProt P07766); test: FACS on expanded human T cells (hum PBL), antibody at 0.1 µg/ml, Alexa488-labelled secondary antibody, geomean of fluorescence
# Sequence of cynomolgus CD3 epsilon (on expanded cynomolgus T cells) (cynomolgus) (Q95LI5 22-197 limits assumed): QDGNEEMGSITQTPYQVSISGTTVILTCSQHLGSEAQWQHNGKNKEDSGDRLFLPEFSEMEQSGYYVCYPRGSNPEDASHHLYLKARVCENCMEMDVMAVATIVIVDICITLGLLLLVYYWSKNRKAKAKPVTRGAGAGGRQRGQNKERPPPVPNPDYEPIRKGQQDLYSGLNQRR
geomean at 0.1 µg/ml [1],geomean at 1 µg/ml [2],geomean at 10 µg/ml [3],geomean at 1 µg/ml [4],geomean at 10 µg/ml [5],geomean at 0.1 µg/ml [6],Substance
37,38,47,39,40,43,Iso rb (antibody)
33,33,44,42,34,40,M-IgG1 (antibody)
5000,16500,15900,9610,19500,2610,anti-CD3 reference antibody SP34-2
61,64,85,56,67,54,hu-IgG1 (antibody)
